Source: PMC11707362, “Endothelial-secreted Endocan activates PDGFRA and regulates vascularity and spatial phenotype in glioblastoma” (Nature Communications, 2025)

What was measured:
[1] = target: T1, Fc-tagged recombinant PDGFRA monomeric fragment (human, UniProt P16234 24-528); experiment: SPR
T1 chain: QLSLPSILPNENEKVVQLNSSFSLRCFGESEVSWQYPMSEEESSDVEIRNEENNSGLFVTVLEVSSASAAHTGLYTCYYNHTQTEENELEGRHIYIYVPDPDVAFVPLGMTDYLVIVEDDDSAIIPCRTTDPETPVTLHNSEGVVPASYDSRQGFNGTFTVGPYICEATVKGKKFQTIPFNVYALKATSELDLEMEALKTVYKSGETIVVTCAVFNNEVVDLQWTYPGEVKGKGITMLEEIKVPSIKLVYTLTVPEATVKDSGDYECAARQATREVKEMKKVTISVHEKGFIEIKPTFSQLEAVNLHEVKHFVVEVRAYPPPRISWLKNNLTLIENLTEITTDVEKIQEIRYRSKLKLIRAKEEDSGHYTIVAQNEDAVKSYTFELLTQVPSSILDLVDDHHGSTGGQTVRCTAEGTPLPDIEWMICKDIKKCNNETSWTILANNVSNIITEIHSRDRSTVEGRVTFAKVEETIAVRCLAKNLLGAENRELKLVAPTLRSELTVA

[2] = target: T2, Fc-tagged recombinant PDGFRA monomeric fragment (human, UniProt P16234 24-528); experiment: SPR; Biacore T200, CM5 chip, amine coupling, hPDGFRA immobilised, Endocan as analyte; HBS-EP (0.15 M NaCl, 3 mM EDTA, 0.005% P20, 0.01 M Hepes pH 7.4), 30 ul/min; KD = koff/kon at five concentrations; repeated with 1 and 10 ug/ml heparin without effect; conditions: both partners purified
T2 construct: PDGFRA (platelet-derived growth factor receptor alpha), human, recombinant 'monomeric fragment'; also called Fc-PDGFRA monomeric fragment; Fc-tagged rPDGFRA; source: bought: R&D

B1: recombinant His-tagged Endocan (ligand, UniProt Q9NQ30 20-184, looked up)
chain: WSNNYAVDCPQHCDSSECKSSPRCKRTVLDDCGCCRVCAAGRGETCYRTVSGMDGMKCGPGLRCQPSNGEDPFGEEFGICKDCPYGTFGMDCRETCNCQSGICDRGTGKCLKFPFFQYSVTKSSNRFVSLTEHDMASGDGNIVREEVVKENAAGSPVMRKWLNPR
notes: Endocan (ESM1 gene product), recombinant; the introduction describes the mature polypeptide as 165 amino acids; also called rEndocan; His6-Endocan; source: bought: R&D
Q: B1 was tested. Which koff [1] did it give?
A: 0.045 s⁻¹

Q: What about the Kd [2] of the same binder?
A: 345 nM
